[ ]: non-standard residue; d: D form. Phe(2-Cl) = N[C@@H](Cc1ccccc1Cl)C(=O)O
How the values were obtained:
VASP-EVH1 domain [1] = biological target: VASP-EVH1 domain (UniProt P50552); assay: ITC
VASP-EVH1 domain [2] = biological target: VASP-EVH1 domain (UniProt P50552); assay: fluorescence titration (FT)
VASP-EVH1 domain [3] = biological target: T1, VASP-EVH1 domain (UniProt P50552 1-115); assay: ITC
T1 construct: domain: EVH1

VASP-EVH1 domain [4] = biological target: T1, VASP-EVH1 domain; assay: fluorescence titration (FT)

T1 sequence (P50552 1-115 limits assumed): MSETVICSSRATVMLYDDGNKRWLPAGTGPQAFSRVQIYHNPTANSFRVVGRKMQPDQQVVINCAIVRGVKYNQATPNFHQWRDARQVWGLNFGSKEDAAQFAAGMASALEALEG
Sequence of VASP-EVH1 domain (UniProt P50552) (P50552 1-115 limits assumed): as above

| Molecule | Kd (VASP-EVH1 domain [1]) | ΔG (VASP-EVH1 domain [1]) | Kd (VASP-EVH1 domain [2]) | ΔG (VASP-EVH1 domain [2]) | Kd (VASP-EVH1 domain [3]) | ΔG (VASP-EVH1 domain [3]) | Kd (VASP-EVH1 domain [4]) | ΔG (VASP-EVH1 domain [4]) |
| --- | --- | --- | --- | --- | --- | --- | --- | --- |
| Ac-Phe(2-Cl)-PP[ProM-9]-OH (peptide) | 8 µM | -6.96 kcal/mol | 0.4 µM | -8.77 kcal/mol | – | – | – | – |
| Ac-Phe(2-Cl)-PP[ProM-1]-OH (peptide) | 14.1 µM | -6.62 kcal/mol | 3.2 µM | -7.5 kcal/mol | – | – | – | – |
| Ac-Phe(2-Cl)-[ProM-2][ProM-4]-OH | 9.7 µM | -6.84 kcal/mol | 1.6 µM | -7.91 kcal/mol | – | – | – | – |
| Ac-FPPPP-OH (Starting ligand shortened to the FPPPP core motif; also called FPPPP core motif ligand) [Ac-FPPPP-OH] | – | – | – | – | 1300 µM | -3.94 kcal/mol | 780 µM | -4.23 kcal/mol |
| Ac-[Phe(2-Cl)]PPPP-OH (SMILES CC(=O)N[C@@H](Cc1ccccc1Cl)C(=O)N1CCC[C@H]1C(=O)N1CCC[C@H]1C(=O)N1CCC[C@H]1C(=O)N1CCC[C@H]1C(=O)O) [Ac-Phe(2-Cl)-PPPP-OH] | – | – | – | – | 18 µM | -6.45 kcal/mol | 13 µM | -6.64 kcal/mol |

Source: patent US20170320910A1 (published 2017)
